In patent US20120022129:

Target: flag-tagged WT HDAC2 (1-488)
Sequence (chain, as listed by the source): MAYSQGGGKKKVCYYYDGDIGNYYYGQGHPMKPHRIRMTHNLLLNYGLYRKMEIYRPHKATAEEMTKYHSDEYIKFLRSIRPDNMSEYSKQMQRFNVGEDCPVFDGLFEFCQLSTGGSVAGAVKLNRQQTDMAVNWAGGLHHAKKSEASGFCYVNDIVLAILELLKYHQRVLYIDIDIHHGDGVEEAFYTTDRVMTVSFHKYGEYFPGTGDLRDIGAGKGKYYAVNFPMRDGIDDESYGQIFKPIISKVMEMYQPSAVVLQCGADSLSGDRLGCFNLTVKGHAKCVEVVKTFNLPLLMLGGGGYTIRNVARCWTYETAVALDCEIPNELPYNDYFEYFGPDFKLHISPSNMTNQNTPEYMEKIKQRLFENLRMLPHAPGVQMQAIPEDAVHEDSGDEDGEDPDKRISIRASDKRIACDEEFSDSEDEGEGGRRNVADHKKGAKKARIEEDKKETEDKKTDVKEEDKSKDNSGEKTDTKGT

B1: protein kinase CK2 catalytic subunit CK2α (protein)
chain: MSGPVPSRARVYTDVNTHRPREYWDYESHVVEWGNQDDYQLVRKLGRGKYSEVFEAINITNNEKVVVKILKPVKKKKIKREIKILENLRGGPNIITLADIVKDPVSRTPALVFEHVNNTDFKQLYQTLTDYDIRFYMYEILKALDYCHSMGIMHRDVKPHNVMIDHEHRKLRLIDWGLAEFYHPGQEYNVRVASRYFKGPELLVDYQMYDYSLDMWSLGCMLASMIFRKEPFFHGHDNYDQLVRIAKVLGTEDLYDYIDKYNIELDPRFNDILGRHSRKRWERFVHSENQHLVSPEALDFLDKLLRYDHQSRLTAREAMEHPYFYTVVKDQARMGSSSMPGGSTPVSSANMMSGISSVPTPSPLGPLAGSPVIAAANPLGMPVPAAAGAQQ
HDAC2 serine phosphorylation (phospho-serine western blot of immunoprecipitated flag-tagged HDAC2): HDAC2 phosphorylation seemed to correlate with the level of CK2α binding
